Earlier results in publication PMC3277744.

Target: Bcl-XL (Homo sapiens) (UniProt Q07817)
Sequence (Q07817 whole entry): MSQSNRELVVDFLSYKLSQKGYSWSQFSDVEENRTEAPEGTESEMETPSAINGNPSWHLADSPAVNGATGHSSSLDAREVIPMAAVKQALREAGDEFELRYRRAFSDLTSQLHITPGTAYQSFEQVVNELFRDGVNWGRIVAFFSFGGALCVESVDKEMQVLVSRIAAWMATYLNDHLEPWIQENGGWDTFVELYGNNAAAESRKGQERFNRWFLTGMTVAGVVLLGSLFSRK

Kd: 164 nM
Substance: p53 (from UniProt P04637)
